A short description of this data set: soluble on expression in E. coli; label from the status in PepcDB or PDB records.
On to “MGSDKIHHHHHHSAHNKVSSQKLEAKNVNQVSNYSGDIDLLTVSQPTTPTTNNGQINQYFINRFDNAISLLNGKYVVNHNVLPQNTSGEEINILNESVKIANQQLIVGAQKIEKSDIDVKVVQKGNSIILAENPTTLKNSATSMATKHVGVTKVEFHWYGVRLFLSKNDVNKILKYGPTSVSIATIWMPTTWVVKLAASAAVACGWMSSVNGGIWIDWGLIPTKWGWQ”, for which the “soluble on expression in E. coli” value was “not soluble”.
For “MGSDKIHHHHHHSNKPEGVIGPFQLVIETKESYLPNDPLDVRVKVFNREKKKENLVLEDFVFSIKRENDTVYEFHFPQRVEKEMEAFESVLVFDLLREEELSNLPGGNYTITVSVKLNGQRVVISKVVSVIEKWQIEVEDLKDFYFPYENVHFFVYLENISSKSRKIRVESIGLIILKGNEAVFERDIPIEKDFVINPMMVEQIHEVSFSAPKESGDYIIKLKLKTESSLIEKSIPLFVTREYQKDLKGLSLVIEGKKFVASGERYDFSVKLLNEEKKRKYIVLKNIMIVLTHKEPVFSYAYSEEYRMTIEGYSSREIFKTTSYDIIKLEDPGTYKLIVVIESEEDRLMKEMEIVVSE”, the “soluble on expression in E. coli” value is on record as “not soluble”.
Take “MGSDKIHHHHHHTYTPGTMGEGVVYYLPKTEIELQVTATKVVYTPGEFCQYADRYLRLTGISSQPEEHWEINSIKVNSIGIPDPDNAYAVKLKDKSAASQVELTPEGIIKAINTTSPIEKAPVTKVADTVKKRIDPRSFMTEEILIAGSTAKMAELVAKEIYNIRESKNSLTRGQADYMPKDGAALKLMLDNLDEQEQAMMQMFAGTTDRIEKSFTIRIKPEADMKEKVAFRFSKKLGMLDADNLSGEPYYISIVNQETLPPMDPKGKEKKKTDGVIYNIPGKAQVTVFTPNKRYFDGELPVTQFGTTECLIDNLFNKKVNTRVIFNPNTGGIVKIDKD”: the “soluble on expression in E. coli” value is “not soluble”.
With “MGSDKIHHHHHHVAFSAKASLATAIGRSSYWFLHTFLKGGSSLPGQIANRIDPQVLRTLGQNYDVIVVTGTNGKTLTTSLIVKVLKKKYKEVLTNPTGSNMLQGITTAFLAQPKRGHGRGIAVLEVDEANVAPVAAQLKPKAFVLTNIFRDQMDRYGEFYTTYQKILDGVTRDPEAMVIANGDAPIFSSRKLPNPVTYYGFELTANGDHKAPPNTDGVLCPVCQHILHYHAQTYANLGNYFCPHCGFKRPALTHQITEVTQMTPQSSDFMIDDQPCHIDIGGMYNIYNALAAFAVGRAFGVTPTEISQAFAYDEKVFGRQEVIQLGKKKLTLILVKNPVGLNQVLSMIETAKQPFGFAMLLNANYADGIDTSWIWDGNFEELVASQKAASYLVGGERYKDIGLRLTVAGVPEKALVSKPALDDVISTLKRSQQDQLYVLATYTAMLQLRKKLSDGGYIKAGF”, the “soluble on expression in E. coli” value was “not soluble”.
As to “MGSDKIHHHHHHVAIALDFGTSNTVVARWNTETQSPELLSLTNLSQRGSQTPPLIPSLLYVEEATMPRLLAGQAVRDQGRDRPQDSRFFRSFKRGIGAEVTGFLPDLDGVCPDFEQVGQWFLDTVIAALEPGDRDGADLVLTVPVDSFENYRLWLSRVAQQWPVDRVRLIDEPTAAALGYGVEQQSPILVFDFGGGTLDLALIELGQTTSKVRSPLGFILKWGDQSFGDNSGQRPQLARVLAKAGRNLGGNDLDDWLTDYFAKQLNTAPTRVLTRLAERIKIQLSTTPEASEVYFDDETLQSLQLQLDRSQFQQILHDRGFFEQLDELLESVLQQGRRQGINPDAIAAVLMVGGSAQIPAVQDWLAGYFPTEKIRCDRPFEAVACGALQLAQGLEVRDFLYHSYGIRYWNHRSQRHDWHPLIPPGQAYPMAEPVELVLGASVAQQPSMELVLGELSQDRGATEIFFDGDRLITRRIGPDRTAAKALNDSETARTIARLDPPGDPGVDRLRLQFWVDRDRFLRVTIEDLLTLETVVENQVVIQL”, the “soluble on expression in E. coli” value is listed as “not soluble”.
The value for “MGSDKIHHHHHHVETSASVMEPFLQLLRGNNLRWRSFGLTRQDGNVSETEAIPNPQDTVDTHPWGRYVAMGDSFTEGIGDPEPGSPGGHRGWADRVAEELSRGHSDFAYANLAVRGRLLEQIVDQQLAPCLALKPDLVTLSAGGNDLIRPGGDPDALAEKLDSVVHILSLGGATVVLFNGPDTGSSVLGRVRSKIAIYNENLRTVAARHDAVIADMWSLRQLSDPQMWDQDRLHFSPLGHHTIAAMVLDSLNIRHTLEPLSPKPLPQRSWREARSGDLVWAREYFVPWVVRRLRHQSSGDGVTAKRPTPGPVFGPGMPLGSGEAPGIEAEQR” was “not soluble”.
In the case of “MGSDKIHHHHHHVIGKLTLDQLRVLVAVADTGSFTAASQAVGRAQSAVSQMMAALENAQGVQLFDRSSYRPMLTEAGRVLVAQARTTLAGASRFEAMAEHMRSGVEAELALAIDPLVPSAPFMQGLRDLSARYPDLSVSFSTEGLGGSLRRLRDGSASLGICTLLPTVPDDVVAYPLLQTAMTPVVAGNHPLASQDGPLQRGDLEPHVQLVLSDPVEPSGPNYGLTSARLWRFADLNRRLDFLLGGFGWCRMPEHLVADALADGRLVALDIKNDNAPQDGLPIYAAHARDRALGPAGRWFLDAMRECMAAA” it was “not soluble”.
The value for “MGSDKIHHHHHHVKKSESLPVLIVTGLSGAGKSTVLNVFEDLRFFTIDGLPVGVVADLLEHLARDAMGRYRGVVLGMDLRQFDFLDEFEGALMRLEKMGVSPRIIYLEADSDTLVRRFATTRRPHPLEGGDLGLEAAVEHERNLLAPVRERADLILDTSEFSIHDLRRIVQKKWSSLGGSLRSLRVNLITFGFKYGVPSDADMVFDLRFLPNPYFDAKLKALSGKDPEIQQFVLGCEQGKTFFKRFLDFLLFLLPQYEAEGRYRITLAIGCTGGRHRSVSTAEALRDALKKSDYAVSLEHRHIDLG” was “not soluble”; that for “MGSDKIHHHHHHVLIWWRGKFRRADEISLDFSLFEKSLQGAVYETLRTYSRAPFAAYKHYTRLKRSADFFNLPLSLSFDEFTKVLKAGADEFKQEVRIKVYLFPDSGEVLFVFSPLNIPDLETGVEVKISNVRRIPDLSTPPALKITGRTDIVLARREIVDCYDVILLGLNGQVCEGSFSNVFLVKEGKLITPSLDSGILDGITRENVIKLAKSLEIPVEERVVWVWELFEADEMFLTHTSAGVVPVRRLNEHSFFEEEPGPVTATLMENFEPFVLNLEENWVGI” was “soluble”.
Take “MGSDKIHHHHHHVNQVSARRPVTVTGEDWFEIAKTLEISSESVVQDFLRDNPGFAADLVIPKRVTIETVFGCNARCGMCVIDQPTERPKGTMPLEQFKAIVDKLVPYRDRIEMMDFFALGEPLIDTHLFERIRYVKAKGFRRLAFATNAHLLTAAKRRDLLESGIDTVIFSIDGITKATHESIRERVNFDKVMENVQAVIRERDQGDFKTRFVVRFVRQAKNRHEWEEYKAFWSSRISPDRNDVVTSYDMHTWGGQVANKDDVIGGEQQRDEMVERLPCHHAFDKLTILADGSIPLCSEDILEPAYGFGKIGDQDPIQVFNSERLRAMRRLHLAGRKALLKGCGECTLLYSEPRRGSD”: the “soluble on expression in E. coli” value was “not soluble”.
Consider “MGSDKIHHHHHHVPDITIATERCIGCAECARDCPTGIIRMENGIPAVAPRREKRCIGCLHCVTVCPCGALSFRGVTPESCTPLKNRFPQPEALEILMKGRRSVRRFLPEAVDSALIRRTVDAAAHAPSGKNQRGLLFTVVDDPQTMNRLRHDTVEAVREALADGCSHPQTAFFQAALARWDTGTDIIFRNAPHLLWVTAPRTNTTAQADVHVALTYFELMAAACGLGTLWCGFATWAMSEIAPRIARGLGIPEAHTSGYVMLFGKPAVRYHRTAERGCDGFNRVVWPPAT”, for which the “soluble on expression in E. coli” value is on record as “not soluble”.
On to “MGSDKIHHHHHHVSIPANNSPVRLALIGAGRWGKNYIRTIAGLPGAALVRLASSNPDNLALVPPGCVIESDWRSVVSAPEVEAVIIATPPATHAEITLAAIASGKAVLVEKPLTLDLAEAEAVAAAAKATGVMVWVEHTQLFNPAWEALKADLTSIGPILAVRSEAGNHGPYRPGGVPMLWDWGAHDVSMVLDLMGRDPDSTSASWAARGEKDGGEAGDVTLTLAFSTVEAHIRLCNTMDKCRRLAVFGEAGTLVMDDRATDKLTLHPPQPDGNWPVGQGHALTVTDEMPLTRAVRLFAGAVRQPEPGPSPLELGLRVVRVLGACS”, for which the “soluble on expression in E. coli” value is “not soluble”.
The value for “MGSDKIHHHHHHVSKILIIYSSVHGQTRKLCDFMQRELEALEHSVTCASIDNPPAMEGFDKIVLGASIRHGKHNPRVYDFIRENIKVLQEKASSFFSVSLVARKPAKNTPETNPYMQAFLAKSPWQPKLLAVFGGNLDYQGYNALDRNIIRFIMWITKGPTAPDTKVEYTDWDKVKHYAQQVDAL” was “not soluble”; that for “MGSDKIHHHHHHVTALPYLIEPLVLPAAVDSPDAGAFREFGELSDALVLETWGNADRSSPQEARLQYWRDNPYTQLRLFFVWLDGRMVARSWIRFGIQENVHTAVLHVNVLAEFSGRGIGRALLRHAEELAAARGCTTLQTFTEHPADFDAGGAGVLKPETGTGGVPAAARGVRFALAAGYRLEQVERFSALELPLAGDTLAALETEALEKSGEQYELLHWTDRCPDGLAQQLAVLMSRMSTDTPVGALNYDEESWDVARVRHVEDTWQKAGLASLVAGARHRATGELAAYSVLQVSDAKPWLANQDDTLVASHHRGHRLGMLVKILNIRRLLAGYPGVERIITFNAAENDHMLAINVALGFHPEGYDGEWQKAL” was “not soluble”; that for “MGSDKIHHHHHHVTSDLDFHLFCPKGALSDLVQGIWSVSRPAEADELHAWLHSDAASGLLINLGAPLGYDEQEVPAGVYLLPVNKQTTRVTLPPGALAVGVRFLPGAGRAWMMERFAFEQGREAITPLTYHAELMALAASLRACRGHRQRLSLTYRWLRANQTLNQPLPRVINEVLQALDRPDADMTAFENGVMSQRQIERYFRRYLEMTPKYYQRLMRARQTLQALKLSPLAPLADIALELGFADQAHMTRELKQLIKITPKRYRQLLTQGAG” was “not soluble”.
The value for “MGSDKIHHHHHHVTSEIKRGVSLYSYQNETFQGKMTLEDCIRTSAELGAKGIEIIGEQTFWGWPECGVAQADVDTWHRLIKQYDCTPVSHDFMLDYKRYKGREMPFDEQVASVKNDVDFGARLGMKYIRALVSIAPEVLVAAAPYAEEKGIKILIEVHAPLHFDHPWIIRHAEAFEKSGSDALGFLPDMGMFLFAFPPVWKEKFLRIGVPKNIADYVEKAYEDRVLSEYVILNVQQMGGTGPAIAMAETLRHNAAFEPRRMLDYMHRIHNVHGKFYQMNEDYVEPSIPYDEIVKVLKQGGFNGYICSEYEGNRWIEDAEEPDSVEQVRRQQVMLARLLGETEVPTIQTSPTASAMAEAAA” was “not soluble”.
“MGSDKIHHHHHHVTSVSLGMPSAPPPVLAPRRKTRQIKVGSVGVGSDSPISVQSMTTTPTTDINATLQQIAELTASGCDIVRVACPSADDAEALPIIARKSQIPVIADIHFQPKYVFAAIEAGCAAVRVNPGNIRKFDDQVKEIARAAKDHGTSIRIGVNAGSLEPGILKKYGKATPEALVESAVWEASLFEEHGFHDFKISVKHNDPVIMVAAYEMLAEKGDWPLHLGVTEAGPAFQGTIKSATAFGALLSRGIGDTIRVSLSAPPVEEIKVGNQILQSLNLRPRKLEIVSCPSCGRAQVDVYTLAEQVTAGLEGMEIPLRVAVMGCVVNGPGEAREADLGVASGNGKGQIFVKGEVIKTVPESEIVETLIEEAMRIAEEMGEADGEDAVKGSPVVSVS”: the “soluble on expression in E. coli” value is “not soluble”.
In the case of “MGSDKIHHHHHHVVQKFNRLFGKSNKGVGIELAPERVNVVQLRKQRQGLKLETFTSVAVPEGVVTDGQITDPAAMAQLIQQALAESKIKTTRVATGVPGRDSIVRIIPVPTELDDKELREMVLNHEAGLYLPYPREEADVDYQKLDYFVDEDGIEKVHVLLVATRKEITDTYISTFEQAGLQIDVLEINSFALIRTIREQLRQFGPQEAAVLVDIEFDSTEIAIIVNGVPQFSRTVPIGTYQMQTALARAMSLPTSRDMELLHGMIIPPTPLDGGKTGVTEIDPGMAAILRVLGELTDELRRSIDFYLNQSENLEVAQILLAGPGGGLQQLDEFFTQRLSLPTTQIDPIGSLSLEVDTDKYPQVKRSGLAIVLGLGMREV” it was “not soluble”.

Values taken from the DeepSol protein solubility set.
